# Assay results as given in the supplement of paper PMC10724198.
# ± gives the standard deviation of the averaged measurements.
# Experiments:
# [1] = test system: Saccharomyces cerevisiae; assay: protein stability index of tFT-peptide fusion (C-terminal peptide) (PSI (0-1 scale)); higher = more stable (slower turnover); conditions: genetic background: wild type; temperature: 30 C
# [2] = test system: Saccharomyces cerevisiae; assay: as above
# Protocol: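 MPS profiling in S. cerevisiae of the tFT-X12 degron library: putative degron peptides plus stable controls, 12 aa, fused to the C-terminus of a sfGFP-mCherry timer. Cells are FACS-sorted into 8 mCherry/sfGFP bins and deep-sequenced. PSI runs from 0 (unstable) to 1 (stable). Backgrounds are wild type, das1Δ and doa10Δ at 30 °C, and wild type, das1Δ, cdc34-1 and cdc53-1 at 37 °C; 2-3 technical replicates each.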
# [3] = genetic background: cdc34-1, temperature: 37 C
# [4] = genetic background: cdc53-1, temperature: 37 C
# [5] = genetic background: das1 deletion, temperature: 30 C
# [6] = genetic background: das1 deletion, temperature: 37 C
# [7] = genetic background: doa10 deletion, temperature: 30 C
# [8] = genetic background: wild type, temperature: 30 C
# [9] = genetic background: wild type, temperature: 37 C
# 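Note: PSI is a weighted mean of sequencing reads over stability bins, variants kept only with over 10 reads, mCherry proximal and sfGFP distal, peptide attached via GGGS linker.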
Sequence,protein stability index [1],"protein stability index [2, 3]","protein stability index [2, 4]","protein stability index [2, 5]","protein stability index [2, 6]","protein stability index [2, 7]","protein stability index [2, 8]","protein stability index [2, 9]"
PSIALVRLDVIC,0.392 ± 0.017,0.383 ± 0.0059,0.471 ± 0.0073,0.32 ± 0.038,0.46 ± 0.004,0.297 ± 0.011,0.327 ± 0.031,0.443 ± 0.0051
PSPFHSFYLRLI,0.398 ± 0.033,0.5716 ± 0.0014,0.643 ± 0.009,0.579 ± 0.011,0.712 ± 0.028,0.263 ± 0.0033,0.249 ± 0.014,0.483 ± 0.0017
PSPPPYAPPIPA,0.488 ± 0.0057,0.549 ± 0.03,0.611 ± 0.055,0.44 ± 0.023,0.5857 ± 0.0057,0.416 ± 0.019,0.447 ± 0.021,0.563 ± 0.02
PSSPTPPPSSSP,0.353 ± 0.039,0.655 ± 0.021,0.726 ± 0.011,0.664 ± 0.017,0.73 ± 0.0086,0.679 ± 0.017,0.673 ± 0.011,0.7306 ± 0.0015
PSSVKLRVPSLY,0.7075 ± 0.0025,0.672 ± 0.029,0.762 ± 0.033,0.623 ± 0.021,0.7309 ± 0.00087,0.61091 ± 0.00013,0.636 ± 0.015,0.715 ± 0.033
PTPSRPPHPPLR,0.704 ± 0.02,0.704 ± 0.049,0.752 ± 0.05,0.633 ± 0.013,0.725 ± 0.054,0.658 ± 0.025,0.66 ± 0.0015,0.69 ± 0.0022
PVALYPVQAYLT,0.2307 ± 0.0013,0.5565 ± 0.0049,0.71 ± 0.025,0.616 ± 0.012,0.715 ± 0.022,0.119 ± 0.01,0.146 ± 0.017,0.265 ± 0.094
PVFVLFFFSSLV,0.44 ± 0.012,0.421 ± 0.012,0.533 ± 0.0086,0.371 ± 0.028,0.5579 ± 0.0041,0.329 ± 0.011,0.35 ± 0.013,0.5151 ± 0.0018
PVLIFTWVIVCH,0.162 ± 0.036,0.0357 ± 0.011,0.0674 ± 0.026,0.0676 ± 0.026,0.142 ± 0.013,0.0332 ± 0.0019,0.0533 ± 0.023,0.0899 ± 0.012
PVLPPPLLLCPC,0.22801 ± 2.4e-05,0.0283 ± 0.018,0.0268 ± 0.011,0.119 ± 0.023,0.11 ± 0.024,0.0972 ± 0.0096,0.15 ± 0.018,0.0932 ± 0.032
PWEYSSQLVLVI,0.281 ± 0.022,0.0478 ± 0.02,0.0865 ± 0.011,0.179 ± 0.025,0.2067 ± 0.0011,0.155 ± 0.0084,0.177 ± 0.023,0.159 ± 0.021
QCRLPRPPLSLP,0.436 ± 0.022,0.676 ± 0.017,0.7414 ± 0.0062,0.651 ± 0.022,0.7354 ± 0.0058,0.672 ± 0.032,0.692 ± 0.009,0.693 ± 0.0099
QPTGYFKLIIIK,0.3976 ± 0.0014,0.317 ± 0.029,0.393 ± 0.072,0.3 ± 0.044,0.473 ± 0.047,0.38 ± 0.0083,0.323 ± 0.067,0.4476 ± 0.0013
QPTPQSALAKHQ,0.515 ± 0.04,0.655 ± 0.018,0.721 ± 0.04,0.6492 ± 0.005,0.731 ± 0.034,0.3327 ± 0.0025,0.337 ± 0.0054,0.544 ± 0.04
RASLPSLFRSLL,0.811 ± 0.073,0.951 ± 0.014,0.913 ± 0.048,0.804 ± 0.047,0.879 ± 0.019,0.8152 ± 0.008,0.807 ± 0.022,0.897 ± 0.011
RAVLRFVMVWVL,0.317 ± 0.0068,0.499 ± 0.042,0.611 ± 0.024,0.466 ± 0.02,0.5789 ± 0.003,0.253 ± 0.024,0.244 ± 0.051,0.434 ± 0.022
RCTLFVNPVCVH,0.349 ± 0.014,0.251 ± 0.018,0.304 ± 0.008,0.242 ± 0.034,0.402 ± 0.025,0.197 ± 0.011,0.241 ± 0.015,0.345 ± 0.017
RGFIFFALWSFC,0.384 ± 0.08,0.458 ± 0.0091,0.544 ± 0.021,0.375 ± 0.031,0.5317 ± 0.0053,0.334 ± 0.021,0.35 ± 0.016,0.498 ± 0.022
RGFVVFCIPCFV,0.3392 ± 0.002,0.301 ± 0.042,0.326 ± 0.021,0.259 ± 0.042,0.428 ± 0.033,0.204 ± 0.0051,0.243 ± 0.03,0.401 ± 0.038
RGKVVRGLLFCA,0.3 ± 0.12,0.619 ± 0.058,0.7188 ± 0.0062,0.624 ± 0.031,0.7327 ± 0.0057,0.137 ± 0.012,0.151 ± 0.0035,0.318 ± 0.077

Sequence,protein stability index [1],"protein stability index [2, 3]","protein stability index [2, 4]","protein stability index [2, 5]","protein stability index [2, 6]","protein stability index [2, 7]","protein stability index [2, 8]","protein stability index [2, 9]"
RGPAYATCHLLC,0.232 ± 0.028,0.599 ± 0.041,0.7316 ± 0.0053,0.645 ± 0.012,0.75 ± 0.0094,0.119 ± 0.013,0.141 ± 0.022,0.257 ± 0.015
RIAIRSAVICAS,0.183 ± 0.028,0.306 ± 0.05,0.379 ± 0.0076,0.276 ± 0.028,0.487 ± 0.0057,0.101 ± 0.032,0.138 ± 0.038,0.154 ± 0.02
RIIKIRAISINL,0.501 ± 0.022,0.575 ± 0.062,0.66 ± 0.065,0.523 ± 0.023,0.607 ± 0.061,0.454 ± 0.03,0.468 ± 0.016,0.609 ± 0.03
RILKLPGHVNDV,0.7167 ± 0.005,0.6842 ± 0.0067,0.711 ± 0.031,0.654 ± 0.043,0.697 ± 0.026,0.652 ± 0.065,0.65 ± 0.027,0.69 ± 0.019
RIRLYWVLRRLG,0.183 ± 0.0066,0.595 ± 0.008,0.693 ± 0.013,0.571 ± 0.023,0.758 ± 0.0098,0.0772 ± 0.023,0.0992 ± 0.031,0.129 ± 0.0085
RISGSIVVRKRS,0.554 ± 0.1,0.673 ± 0.032,0.738 ± 0.011,0.642 ± 0.015,0.722 ± 0.019,0.425 ± 0.0081,0.45 ± 0.033,0.6333 ± 0.0061
RLPRILVLVCLF,0.237 ± 0.017,0.231 ± 0.0089,0.318 ± 0.025,0.228 ± 0.04,0.383 ± 0.00011,0.169 ± 0.0018,0.163 ± 0.022,0.25 ± 0.0094
RLPSSNVRYWVS,0.235 ± 0.035,0.637 ± 0.037,0.729 ± 0.012,0.64 ± 0.012,0.751 ± 0.032,0.1599 ± 0.001,0.183 ± 0.012,0.394 ± 0.037
RNDCAYHVLQIV,0.228 ± 0.0084,0.607 ± 0.016,0.722 ± 0.054,0.646 ± 0.015,0.7115 ± 0.0031,0.181 ± 0.0022,0.202 ± 0.035,0.381 ± 0.0042
RNTLLFKRILHI,0.165 ± 0.059,0.671 ± 0.028,0.706 ± 0.017,0.637 ± 0.032,0.77 ± 0.018,0.0865 ± 0.024,0.108 ± 0.045,0.154 ± 0.0032
RPPSLVFLFLLT,0.441 ± 0.032,0.551 ± 0.062,0.587 ± 0.021,0.441 ± 0.048,0.598 ± 0.01,0.401 ± 0.026,0.395 ± 0.015,0.573 ± 0.023
RRGGNIVWYCLV,0.234 ± 0.017,0.588 ± 0.025,0.694 ± 0.015,0.634 ± 0.0066,0.714 ± 0.011,0.125 ± 0.0088,0.148 ± 0.017,0.24 ± 0.0074
RRIILAGLFLIS,0.403 ± 0.0097,0.586 ± 0.028,0.613 ± 0.029,0.437 ± 0.033,0.623 ± 0.046,0.332 ± 0.021,0.353 ± 0.014,0.537 ± 0.0093
RRMGLRLFLLWM,0.4517 ± 0.0011,0.649 ± 0.045,0.657 ± 0.0097,0.534 ± 0.026,0.67 ± 0.015,0.354 ± 0.021,0.348 ± 0.032,0.539 ± 0.015
RSAVECRVTNIR,0.546 ± 0.08,0.701 ± 0.031,0.7227 ± 0.00094,0.637 ± 0.018,0.724 ± 0.01,0.639 ± 0.015,0.658 ± 0.036,0.715 ± 0.024
RSFSKRSFMFLC,0.263 ± 0.012,0.621 ± 0.025,0.728 ± 0.11,0.646 ± 0.018,0.734 ± 0.0094,0.154 ± 0.0079,0.172 ± 0.0087,0.227 ± 0.0064
RSNLSKSWHRIG,0.207 ± 0.038,0.538 ± 0.065,0.689 ± 0.014,0.645 ± 0.028,0.743 ± 0.015,0.101 ± 0.011,0.11 ± 0.029,0.212 ± 0.074
RTMLSNRIKSFI,0.415 ± 0.014,0.6235 ± 0.0026,0.701 ± 0.038,0.642 ± 0.014,0.723 ± 0.02,0.239 ± 0.0068,0.244 ± 0.021,0.519 ± 0.025
RVRRETRLRQIA,0.27 ± 0.047,0.597 ± 0.0087,0.732 ± 0.043,0.65 ± 0.024,0.71 ± 0.021,0.1423 ± 0.00049,0.147 ± 0.0031,0.269 ± 0.0076
